The values that follow come from patent publication US20090240037A1 (IMMUNOMEDICS, published 2009).

For test [1], the target named is CD20 (human B lymphocyte-restricted differentiation antigen Bp35) on Raji cells (human) (UniProt P11836). As to the kind of experiment: staining of NHL cell lines (Raji, Ramos, RL, Daudi, Su-DHL-6).
The target is the same in test [2]. The test can be described thus: direct binding of radiolabeled MAb to Raji cells, Scatchard plot analysis.
Test [3] shares this target. The test can be described thus: cell surface competitive binding on Raji cells, 4 C, 1-2 h; unlabeled rituximab against tracer 125I-labeled c2B8/rituximab.
The target is the same in test [4]. The test can be described thus: cell surface competitive binding on Raji cells, 4 C, 1-2 h; unlabeled rituximab against tracer 125I-labeled rituximab; column head IC50 nM.
The target is the same in test [5]. The test can be described thus: cell surface competitive binding on Raji cells; unlabeled murine A20 against tracer 125I-labeled murine A20.
For test [6] the target is unchanged. The test can be described thus: cell surface competitive binding on Raji cells, 4 C, 1-2 h; unlabeled murine A20 against tracer 125I-labeled murine A20.
The target is the same in test [7]. The test can be described thus: cell surface competitive binding on Raji cells, 4 C, 1-2 h; competitor tracer 125I-labeled rituximab; column head IC50 nM.
In test [8] the target is T1, soluble CEA (Scripps Laboratories) (UniProt P06731 35-685, limits assumed).
T1 construct: Coated at 0.5 ug/well in the ELISA; also injected as soluble analyte in BIAcore
T1 sequence (looked up): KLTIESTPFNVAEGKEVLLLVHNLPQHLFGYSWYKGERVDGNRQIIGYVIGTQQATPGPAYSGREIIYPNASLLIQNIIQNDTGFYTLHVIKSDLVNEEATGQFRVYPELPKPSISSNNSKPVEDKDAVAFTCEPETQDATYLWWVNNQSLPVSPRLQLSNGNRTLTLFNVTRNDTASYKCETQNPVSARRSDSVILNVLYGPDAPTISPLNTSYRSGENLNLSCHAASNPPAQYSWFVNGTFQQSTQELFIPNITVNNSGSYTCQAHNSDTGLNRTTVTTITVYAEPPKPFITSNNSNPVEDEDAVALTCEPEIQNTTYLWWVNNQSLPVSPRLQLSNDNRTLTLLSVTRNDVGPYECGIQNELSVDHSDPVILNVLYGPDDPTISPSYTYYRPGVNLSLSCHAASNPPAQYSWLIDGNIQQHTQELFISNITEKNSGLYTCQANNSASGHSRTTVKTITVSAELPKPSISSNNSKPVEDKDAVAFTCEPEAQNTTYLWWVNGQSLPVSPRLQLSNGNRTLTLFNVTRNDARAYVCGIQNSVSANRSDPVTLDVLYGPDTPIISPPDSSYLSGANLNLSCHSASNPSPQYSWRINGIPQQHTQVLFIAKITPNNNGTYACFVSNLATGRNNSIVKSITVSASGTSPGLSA
As to the kind of experiment: competitive ELISA on CEA-coated wells (0.5 ug/well); competitor HRP-conjugated hMN14 IgG, 1 nM. The protocol:
FIG. 15 is a graphical representation of the results of a competitive enzyme-linked immunosorbent assay (ELISA). […] The % inhibition is plotted vs. nM concentration of sample.
Microtiter plates were coated with 0.5 μg/well with soluble CEA (Scripps Laboratories).
For orientation: In an ELISA, binding on a coated surface is turned into a signal by an enzyme label.

Test [9] concerns the target T1, soluble CEA (Scripps Laboratories). As to the kind of experiment: ELISA on CEA.
Test [10] has as its target T2, CD20 (human B lymphocyte-restricted differentiation antigen Bp35) on Raji cells (human, UniProt P11836 1-297).
T2 construct: whole, on cells; The assays name the cells (Raji, Ramos, RL, Daudi, Su-DHL-6); also called CD20 antigen; hCD20
T2 sequence (looked up): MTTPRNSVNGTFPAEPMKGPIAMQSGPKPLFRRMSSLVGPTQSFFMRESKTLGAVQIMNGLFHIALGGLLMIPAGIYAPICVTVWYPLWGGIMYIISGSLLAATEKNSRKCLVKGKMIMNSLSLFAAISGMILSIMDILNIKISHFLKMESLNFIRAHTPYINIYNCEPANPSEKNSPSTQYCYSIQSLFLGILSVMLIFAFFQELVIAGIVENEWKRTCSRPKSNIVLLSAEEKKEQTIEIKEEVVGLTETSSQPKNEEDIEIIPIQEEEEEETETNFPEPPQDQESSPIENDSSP
The test can be described thus: cell surface competitive binding on Raji cells; competitor tracer 125I-labeled murine A20. Here is the method: (§1) Unbound Abs were removed by washing the cells in PBS. The radioactivity associated with cells was determined after washing.

Test [11] concerns the target T2, CD20 (human B lymphocyte-restricted …). The test can be described thus: cell surface competitive binding on Raji cells, 4 C, 1-2 h; competitor tracer 125I-labeled rituximab. The protocol: (§2) Unbound Abs were removed by washing the cells with PBS. Radioactivity associated with the cells was determined after washing.
The target is the same in test [12]. As to the kind of experiment: cell surface competitive binding on Raji cells, 4 C, 1-2 h; competitor tracer 125I-labeled c2B8/rituximab.
Test [13] shares this target. The test can be described thus: direct binding of radiolabeled MAb to Raji cells, Scatchard plot analysis.
For test [14] the target is unchanged. The test can be described thus: cell surface competitive binding on Raji cells, 4 C, 1-2 h; competitor tracer 125I-labeled murine 2B8. Here is the method: as §2
Test [15] shares this target. The test can be described thus: cell surface competitive binding on Raji cells, 4 C, 1-2 h; competitor tracer 125I-labeled murine A20. The protocol: as §1
Test [16] has the same target. As to the kind of experiment: cell surface competitive binding on Raji cells, 4 C, 1-2 h; competitor tracer 125I-labeled rituximab; column head IC50 nM. The protocol: as §2
The target of test [17] is T1, soluble CEA (Scripps Laboratories). The test can be described thus: competitive ELISA; antigen not given, CEA per paragraph 119.

As a reminder, the Kd is the equilibrium constant for the complex coming apart. A word on the IC50: it is the concentration that inhibits the measured activity by half. High values mean a need for much substance, low ones inhibition by little substance.

Residue numbers refer to the chain shown, from its start.

In turn, “hA20, humanized anti-CD20 antibody (variant hA20-1 or hA20-2 not specified)” showed a percent of cells stained in test [1] above 99%. For the same molecule, in test [2], the Kd was 4.2 nM.

Take “rituximab (IDEC Pharmaceuticals Corp.) (antibody)”: the percent of cells stained in [1] was above 99%. The same molecule displayed an IC50 (read off the curve) in [3] of 7 nM. Besides, in [4], the IC50 is 5 nM.

As for A20, murine anti-CD20 MAb (antibody), the IC50 (read off the curve) in test [5] amounted to 20 nM; in test [6], 4 nM.

murine B1 anti-CD20 antibody: the IC50 in test [7] was 34 nM.

B1: BS1.5 (679 x hMN14 bispecific diabody: variant 2) (bispecific antibody)
chain 1: MEVQLVESGGDLVKPGGSLKLSCAASGFTFSIYTMSWLRQTPEKRLEWVATLSGDGDDIYYPDSVKGRFTISRDNAKNNLYLQMNSLRSADTALYYCARVRLGDWDFDVWGQGTTVSVSSGGGGSDIQLTQSPSSLSASVGDRVTITCKASQDVGTSVAWYQQKPGKAPKLLIYWTSTRHTGVPSRFSGSGSGTDFTFTISSLQPEDIATYYCQQYSLYRSFGQGTKVEIKRLEHHHHHH
chain 2: MEVQLVESGGGVVQPGRSLRLSCSASGFDFTTYWMSWVRQAPGKGLEWIGEIHPDSSTINYAPSLKDRFTISRDNAKNTLFLQMDSLRPEDTGVYFCASLYFGFPWFAYWGQGTPVTVSGGGGSDIVMSQSPSSLAVSPGEKVTMTCKSSQSLFNSRTRKNYLGWYQQKPGQSPKLLIYWASTRESGVPDRFTGSGSGTDFTLTINSVQSEDLAVYYCTQVYYLCTFGAGTKLELKRLEHHHHHH
notes: Heterodimer of the two polypeptides; pelB leaders removed; copies: 1 + 1
With B1, the binding result in test [8] is recorded as “binds”.

B2: BS2 (679 x hMN14 bispecific diabody: variant 3) (bispecific antibody)
chain 1: B1 chain 1
chain 2: B1 chain 2 with C225S
notes: as for B1
For B2, the binding result in [9] was “binds”.

B3: BS1 (679 x hMN14 bispecific diabody: variant 1) (bispecific antibody)
chain 1: B1 chain 1 with Q4I
chain 2: B1 chain 2
notes: as for B1
B3: the binding result in [9] was “binds”.

B4: cA20, chimeric anti-CD20 antibody (antibody, V domains shown)
VH: QVQLQQPGAELVKPGASVKMSCKASGYTFTSYNMHWVKQTPGRGLEWIGAIYPGNGDTSYNQKFKGKATLTADKSSSTAYMQLSSLTSEDSAVYYCARSTYYGGDWYFDVWGQGTTVTVSS
VL: DIQLTQSPAILSASPGEKVTMTCRASSSVSYIHWFQQKPGSSPKPWIYATSNLASGVPVRFSGSGSGTSYSLTISRVEAEDAATYYCQQWTSNPPTFGGGTKLEIK
notes: Murine A20 variable domains with human constant regions; expressed in Sp2/0 cells; also called chimeric A20
Turning to B4, the “IC50 (read off the curve)” value is around 10 nM in [10], around 9 nM in test [11], around 6 nM in test [12] and around 9 nM in test [14]. Also, binding in [13] was put at a Kd of 2.9 nM.

B5: hA20-1, humanized anti-CD20 antibody (hA20VH1 + hA20Vk) (antibody, human IgG1, V domains shown)
VH: QVQLQQSGAEVKKPGSSVKVSCKASGYTFTSYNMHWVKQAPGQGLEWIGAIYPGNGDTSYNQKFKGKATLTADESTNTAYMELSSLRSEDTAFYYCARSTYYGGDWYFDVWGQGTTVTVSS
VL: DIQLTQSPSSLSASVGDRVTMTCRASSSVSYIHWFQQKPGKAPKPWIYATSNLASGVPVRFSGSGSGTDYTFTISSLQPEDIATYYCQQWTSNPPTFGGGTKLEIKR
For B5, the results for the “IC50 (read off the curve)” value in [12], in test [15] and in test [14] were around 9 nM, around 4 nM and around 10 nM, respectively. In addition, in test [16], the IC50 stood at 6.8 nM.

B6: hA20-2, humanized anti-CD20 antibody (hA20VH2 + hA20Vk) (antibody, human IgG1, V domains shown)
VH: B5 VH with T30S, K38R, I48M, K67R, L70I, Y95F
VL: B5 VL
Take B6: the “IC50 (read off the curve)” value in [15] is around 4 nM; in [14] it was around 10 nM.

B7: hMN14 diabody (hMN14-scFv-L5) (scFv)
scFv: MEVQLVESGGGVVQPGRSLRLSCSASGFDFTTYWMSWVRQAPGKGLEWIGEIHPDSSTINYAPSLKDRFTISRDNAKNTLFLQMDSLRPEDTGVYFCASLYFGFPWFAYWGQGTPVTVSGGGGSDIQLTQSPSSLSASVGDRVTITCKASQDVGTSVAWYQQKPGKAPKLLIYWTSTRHTGVPSRFSGSGSGTDFTFTISSLQPEDIATYYCQQYSLYRSFGQGTKVEIKRLEHHHHHH
modifications: Non-covalent homodimer (diabody) of two copies of this chain.
notes: Non-covalent homodimer of the scFv; the pelB leader is removed in the mature polypeptide; One codon before the VH and two between the VK and the tag are not spelled out in the text
For B7, in [17], the binding result is reported as “binds”.
